Experimental data: the nanobody polyreactivity screen of Harvey et al. (2022)

Experiment: yeast display, Sf9 membrane polyspecificity reagent, FACS + sequencing; frameworks hold sequencing errors
Procedure, shortened: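 Synthetic nanobody libraries on Saccharomyces cerevisiae BJ5465 were galactose-induced for 36–48 hours, stained 1 hour at 4 °C with 10% biotinylated, detergent-solubilized Sf9 membrane reagent and enriched on streptavidin microbeads. FACS then separated cells into low and high (top ~1%) gates by anti-HA (expression) and streptavidin (reagent binding) fluorescence. Genes were colony-PCR amplified, MiSeq 2 × 250 sequenced and CDR-length filtered. A clone's polyreactivity label is that of its gate of origin.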

| Sequence | polyreactivity (PSR sort gate) |
| --- | --- |
| QVQLVESGGGLVQAGGSLRLSCAASGIIFIVNAMGWYRQAPGKERELVATISSSGDITRYADSVKGRFTISRDNAKYTVYLQMNSLKPEDTAVYYCAARLWTGYWGTAHPRYDYWGQGTQVTVSS | high polyreactivity |
| QVQLVESGGGLVQAGGSLRLSCAASGIIFIYYTMGWYRQAPGTDRELVAVITTSGDGTYYADSVKGRFTISRDNAKNTGYLQMNSLKPEDTSVYYCAASYSTWVSTRNDYWGQGTQVTVSS | low polyreactivity |
| QVQLVESGGGLVQAGGSLRLSCAASGIIFKDYAMGWYRQAPGKERELVAAISRGGSTYYADSVKGRFTISRDNAKNTVYLQMNSLKPEDTAVYYCAAAYTAPYYRFGYWGQGTQVTVSS | high polyreactivity |
| QVQLVESGGGLVQAGGSLRLSCAASGIIFKRYTMGWYRQAPGKERELVAAITNRGGTYYADSVKGRFTISRDNAKNTVYLQMNSLKPEDTAVYYCAARYYWIDFKFGGPRDYWGQGTQVTVSS | high polyreactivity |
| QVQLVESGGGLVQAGGSLRLSCAASGIIFLDNARGWYRQAPGKERELVAAYADSVKGRFTISRDNAKNTVYLQMNSLKPEDTAVYYCNAGWFRNYGFSIVTYDYWGHGTQVTVSS | low polyreactivity |
| QVQLVESGGGLVQAGGSLRLSCAASGIIFLHYAMGWYRQAPGKEREFVAAISWSGGSTHYADSVKGRFTISRDNAKNTVYLQMNSLKPEDTAVYYCAAYTFYSYDYWGQGTQVTVSS | high polyreactivity |
| QVQLVESGGGLVQAGGSLRLSCAASGIIFNTYAMGWYRQAPGKERELVAAISSSGGRTYYADSVKGRFTISRDHAKNTVYLQMNSLTPEDTAVYNCNKVQNRGPRTNARKFDYWGQGTQVTVSS | high polyreactivity |
| QVQLVESGGGLVQAGGSLRLSCAASGIIFPFYAMGWYRQAPGKERELVAAITSGDDTYYADSVKGRFTISRDNAKNTVYLQMNSLKPEDTAVYYCNKRLYIAGYWPQLYYIMDYWGQGTQVTVSS | low polyreactivity |
| QVQLVESGGGLVQAGGSLRLSCAASGIIFPFYAMGWYRQAPGKERELVAAITSGDDTYYADSVKGRFTISRDNAKNTVYLQMNSLKPEVTAVYYCNKRLYIAGYWPQLYYIMDYWGQGTQVTVSS | low polyreactivity |
| QVQLVESGGGLVQAGGSLRLSCAASGIIFPINAMGWYRPAPGKERELVAGIDESGGGTYYADSVKGRFTISRDNAKNTLYLQMNSLKPEDTAVYYCAAVTLAPRAYDYWGQGTEVTVSS | low polyreactivity |
| QVQLVESGGGLVQAGGSLRLSCAASGIIFPVYDMGWYRQAPGKERELVASITDSGGSTSYADSVKGRFTISRDNAKNTVYLQMNSLKPEDTAVYYCAVTDSDTNYYGYLSYDYWGQGTQVTVSS | low polyreactivity |
| QVQLVESGGGLVQAGGSLRLSCAASGIIFPYSAMGWYRQAPGKERELVAAITSIDASTYYADSVKRRFTISRDNAKNTVYLHMNSLKPEDTAVYYCNATVFNLVLEYNYWGQGTQVTVSS | low polyreactivity |
| QVQLVESGGGLVQAGGSLRLSCAASGIIFQKYAMGWYRQEPGKERELVDAITRRGGSTYYADSVKGRFTISRDNAKNTVYLQMNSLKPEDTAVYYCAVQLRRHVDMDYWGQGTQVTVSS | high polyreactivity |
| QVQLVESGGGLVQAGGSLRLSCAASGIIFQNYDMGWYRQAPGKARELVAAITGSGGSTYYADSVKGRFTISRDNAKNTVYLQMNSLKPEDTAVYYCNAVWEYYGKSDYWGQGTQVTVSS | low polyreactivity |
| QVQLVESGGGLVQAGGSLRLSCAASGIIFQQYAMGWYRQAPGKERELVAAITYSGDGTYYADSVKGRFTISRDNAKNTVYLQMNSLKPEDTAVYYCAADVGYFKSDYWGQGTQVTVSS | low polyreactivity |
| QVQLVESGGGLVQAGGSLRLSCAASGIIFQRNDMGWYRQAPGKERELVANIRDGGITYADSVKGRFTISRDNAKNTVYLQMNRLKPEDTAVYYCARDDTSPGYGDQSSNAAYYYWGQGTQVTVSS | low polyreactivity |
| QVQLVESGGGLVQAGGSLRLSCAASGIIFQSYTMGWYRQAPGKERELVAAIDSGGSTYYADSVKGRFTISRDNAKNTVYLQMNSLKPEDTAVYYCAAEPDTYWYTYDYWGQGTQVTVSS | low polyreactivity |
| QVQLVESGGGLVQAGGSLRLSCAASGIIFRANAMGWYRQAPGKERELVAAISRRGGSTYYADSVKGRFTISRDNAKNTVFLQMNSLKPEDTAVYYCAADGKNYPVGYDYWGQGTQVTVSS | high polyreactivity |
| QVQLVESGGGLVQAGGSLRLSCAASGIIFRDNDMGWYRQAPGKERELVASISDSGGSTYYADSVKGRFTISRDNAKNTVYLQMNSLKPEDTAVYYCAAPYLSLYWYDYWGQGTQVTVSS | low polyreactivity |
| QVQLVESGGGLVQAGGSLRLSCAASGIIFREYAMGWYRQAPGKERELVAAISKSGGSTYYADSVKGRFTISRDNAKNTVYLQMNSLKPEDTAVYYCAARLGTFSIPMYYWGQGTQVTVSS | high polyreactivity |
| QVQLVESGGGLVQAGGSLRLSCAASGIIFRGYAMGRNRHAPGKERELVARISTSGGSTYYADSVKGRFTISRDNAKNTVYLQMNSLKPEDTAVYYCAATRSFLTSWYYRSTSTRDYWGQGTQVTVSS | high polyreactivity |
| QVQLVESGGGLVQAGGSLRLSCAASGIIFRGYAMGWDRQAPGKERELVARISITGGRTYYADSVKGRFTLSRDNAKNTVYLQMNSLKPEDTAVYYCAAGKYVRTVRYDYWGQGPQVTVSS | high polyreactivity |

| Sequence | polyreactivity (PSR sort gate) |
| --- | --- |
| QVQLVESGGGLVQAGGSLRLSCAASGIIFRGYAMGWYRQAPGKERELVAAITYSGDSTYYADSVKGRFTSSRDNAKNTVYLQMNSLKPEESAVYYCNADVVDGGLAYDYWGQGTQVSVSS | low polyreactivity |
| QVQLVESGGGLVQAGGSLRLSCAASGIIFRKYAMGWYRQAPGKERELVAAISWRGGSTYYADSVKGRFTISRDNAKNTVYLQMNSLKPEDTAVYYCAAVAQITGYDYWGQGTQVTVSS | high polyreactivity |
| QVQLVESGGGLVQAGGSLRLSCAASGIIFRLNAMGWYRQAPGKERELVAAIRRRGGSTYYADSVKGRFTISRDKAKNTVYLQMNSLKPEDTAVYYCAKDPHGSDFGYWGQGTQVTVSS | low polyreactivity |
| QVQLVESGGGLVQAGGSLRLSCAASGIIFRLYAMGWYRQAPGKERELVAAISYRGGSTYYADSVKGRFTISRDNAKNTVYLQMNSLKPEDTAVYYCAARNPRYSFYYWGQGTQVTVSS | high polyreactivity |
| QVQLVESGGGLVQAGGSLRLSCAASGIIFRNNAMGWYRQAPGKEREFVARISKRGGSTYYADSVKGRFTISRDNAKNTVYLQMNSLKPEDTAVYYCAKGYGSGSYLYDYWGQGTQVTVSS | high polyreactivity |
| QVQLVESGGGLVQAGGSLRLSCAASGIIFRNYAMGWYRQAPGKERELVATITGDGGSTYYADSVKGRFTISRDNAKNTVYLQMNSLKPEDTAVDYCAADRPYAGRYWKGYHSALYDYWGQGTQVTVSS | low polyreactivity |
| QVQLVESGGGLVQAGGSLRLSCAASGIIFRPYTMGWYRQAPGKERELVAAISQSGGRTYYADSVKGRFTISRDNAKNTVYLQMNSLKPEDTAVYYCNVLGSYSYYGGNDLWYYYWGQGTQVTVSS | high polyreactivity |
| QVQLVESGGGLVQAGGSLRLSCAASGIIFRRYAMGWSRQAPGKERELVAAITHRGSTYYADSVKGRFTISRDNAKNTVYLQMNSLKPEDTAVYYCAADGFTRWGRYDYWGQGTQVTVSS | high polyreactivity |
| QVQLVESGGGLVQAGGSLRLSCAASGIIFRRYAMGWYRQAPGKEREFVAAIRYTGGGTYYADSVKGRFTISRDNAKNTVYFQMNSLKPEDTAVYYCAASPWSRGSRWRPFDYWGQGTQVTVSS | high polyreactivity |
| QVQLVESGGGLVQAGGSLRLSCAASGIIFRSYAMGWYRQAPGKERELVAAITGGGTTNYADSVKGRFTISRDNAKNTVYLQMNSLKPEDTAVYYCNAGLDWFWFNEMDYWGQGTQVTGSS | low polyreactivity |
| QVQLVESGGGLVQAGGSLRLSCAASGIIFRTNAMGWYRQAPGKEREFVAAISAGGTRTYYADSVKGRFTISRDNAKNTVYLQMNSLKPEDTAVYYCAAASGYDYWGQGTQVTVSS | high polyreactivity |
| QVQLVESGGGLVQAGGSLRLSCAASGIIFRVYAMGWYRQAPGKERELVASITDRGTRTYYADSVKGRFTISRDNAKNTVYLQMNSLKPEDTAVYYCADEPNYLYWGFFSVGYDYWGQGTQVTVSS | high polyreactivity |
| QVQLVESGGGLVQAGGSLRLSCAASGIIFRVYAMGWYRQAPGKERELVATITWSGGSTFYADSVKGRFTISRDNAKNTVYLQMNSLKPEDTAVYYCAARFLWSVFGRKGGYWGQGTQVTVSS | low polyreactivity |
| QVQLVESGGGLVQAGGSLRLSCAASGIIFRWYAMGWYRQAPGKERELVAAITRSGGSTYYADSVKGRFTISRDNAKNTVYLQMNSLKPEDTAVYYCAAEYYAPSYKFDYWGQGTQVTVSS | high polyreactivity |
| QVQLVESGGGLVQAGGSLRLSCAASGIIFRWYAMGWYRQAPGKERELVAGITSTTGTTYYADSVKGRFTISRDNAKNTVYLQMNSLKPEDTAVYYCAADYYCYTTAGVVDSFEYWGQGTQVTVSS | low polyreactivity |
| QVQLVESGGGLVQAGGSLRLSCAASGIIFRWYGMGWYRQAPGKERELVATITSGGRTNYADSVKGRFTISRDNAKNTGYLQMHSLKPEDTAVYYCAAARLFAMDYWGQGTQVTVSS | low polyreactivity |
| QVQLVESGGGLVQAGGSLRLSCAASGIIFRYNAMGLYRQAPGKERELVAAISWSGGYTYYADYVKGRFTISRDNAKNTVYFQMNSLKPEDTAVYYFNAVSLSRWGGYWGQGTQVTVSS | high polyreactivity |
| QVQLVESGGGLVQAGGSLRLSCAASGIIFRYYAMGWYIQAPGKERELVARITSGARTTYADSVKGRFTISRDNAKNTVYLQMNSLKPEDSAVYYCNAVRRYGLEYNYWGQGTQVTVSS | high polyreactivity |
| QVQLVESGGGLVQAGGSLRLSCAASGIIFRYYAMGWYRQAPGKEREFVADISASDGSTYYADSVKGRFTISRDNAKNTVYLQMNSQKPEDTAVSYCNARKYWKYGSYQYYWGQGTEVTVSS | high polyreactivity |
| QVQLVESGGGLVQAGGSLRLSCAASGIIFRYYAMGWYRQAPGKERELVAAISVSGGSTYDADSVKGRFTISRDNAKNTVYLQMNSLKPEDTAVYYCAARTRDFGYWGQGTQVTVSS | high polyreactivity |
| QVQLVESGGGLVQAGGSLRLSCAASGIIFRYYARVWYRQAPGKEREFVAAINYSGGSTYYADSVKGRFTISRDTAKYSVYLQMNSLKPEDTAVYYCAARSYTYTAPIYGYWGQGTQVTVSS | high polyreactivity |
